Biological target: PLC-γ1 (UniProt Q62077)
Assay: IP of PLC-γ1, blot for EAT-2
Details: reference: wild type EGFP-EAT-2; sites Y120,Y127

EAT-2 (from UniProt O35324) Y120F + Y127F double mutant (FF)
binding against the reference: lost

Source: paper PMC2757176
